The text below walks through data of paper PMC6660772.

Sequences and labels used below:
B1: KAP1 RBCC (residues 50-413), wild type [human] / itself (parent)
chain: SPAGGGAEALELLEHCGVCRERLRPEREPRLLPCLHSACSACLGPAAPAAANSSGDGGAAGDGTVVDCPVCKQQCFSKDIVENYFMRDSGSKAATDAQDANQCCTSCEDNAPATSYCVECSEPLCETCVEAHQRVKYTKDHTVRSTGPAKSRDGERTVYCNVHKHEPLVLFCESCDTLTCRDCQLNAHKDHQYQFLEDAVRNQRKLLASLVKRLGDKHATLQKSTKEVRSSIRQVSDVQKRVQVDVKMAILQIMKELNKRGRVLVNDAQKVTEGQQERLERQHWTMTKIQKHQEHILRFASWALESDNNTALLLSKKLIYFQLHRALKMIVDPVEPHGEMKFQWDLNAWTKSAEAFGKIVAERP

The variants in this experiment derive from B1. Description: SEC-MALS. The following applies: with itself; mutant 179 µM; WT 159 µM; read off a plot. (In general: SEC sorts molecules by how far they enter the pores of the column.)
Regarding chain 1 A111D T114A E126R, the screen value worked out at 95 kDa.
